The record followed here is publication PMC8154254, “On the Track of Long-Range Electron Transfer in B-Type Dye-Decolorizing Peroxidases: Identification of a Tyrosyl Radical by Computational Prediction and Electron Paramagnetic Resonance Spectroscopy” (Biochemistry, 2021).

In general, Km refers to the substrate concentration at which the rate is half of its maximum. In general, kcat refers to the maximal rate divided by the concentration of active sites. What is called kcat/Km is the second-order rate constant that governs catalysis at low substrate concentration.

Substrate in this data set: CCn1c(=NN=c2sc3cc(S(=O)(=O)O)ccc3n2CC)sc2cc(S(=O)(=O)O)ccc21
Kind of data set: purified protein. It is filed as biochemical, Klebsiella pneumoniae. Conditions: 40 μM H2O2, 100 nM enzyme, 50 mM phosphate-citrate pH 5.0, room temperature.

B1: KpDyP (B-type Klebsiella pneumoniae dye-decolorizing peroxidase) (Klebsiella pneumoniae) (protein)
chain: MSQVQSGILPEHCRAAIWIEANLKGDVNALREASKIFVDNVATFQAKFPDAKLGAVVAFGNNVWRQLSGGEGADELKDFPVYGKGLAPSTQYDLLIHILSARHEVNFSVAQAALAAFGDAIDVKEEIHGFRWVEERDLSGFVDGTENPAGEETRREVAVIKDGVDAGGSYVFVQRWEHNLKQLNRMSVPDQEMMIGRTKDANEEIDGDERPVTSHLSRVDLKEDGKGLKIVRQSLPYGTASGTHGLYFCAYCARLYNIEQQLLSMFGDTDGKRDAMLRFTKPVTGGYYFAPSLERIQAL
notes: recombinant from E. coli BL21 (DE3) Tuner; dimer
As for B1, the Michaelis constant (Km) amounted to 20.5 ± 1.9 µM, the kcat was determined as 3.1 ± 0.1 s⁻¹ and the kcat/Km is 150000 M⁻¹ s⁻¹.
